What was measured:
[1] = molecular target: T1, full-length human PD-1 N58A expressed on HEK293 cells (human, UniProt Q15116 25-288); assay: flow cytometry on transfected HEK293 cells
T1 construct: whole, on cells; Expression vector carries EGFP; the mutation removes the N-glycosylation site; also called PD-1-mut N58A
Experimental: (§1) The mutants obtained were inserted into an expression vector carrying EGFP to construct five plasmids expressing full-length human PD-1 (WT, N49A, N58A., N116A, N74A). […] 2 days after the transfection, the cells were collected to a 96-well plate, centrifuged at 1500 rpm for 2 minutes, and the supernatants in the wells were discarded. […] The working concentration of the primary antibodies was 2 μg/ml, and cells without primary antibodies added were used as negative controls. The mixtures obtained were centrifuged at 1500 rpm for 2 minutes, and supernatants were discarded. The cells in each well were resuspended by adding 200 μl PBS and the suspensions obtained were then centrifuged at 1500 rpm for 2 minutes, then supernatants were discarded. Later, the obtained cells were incubated with 200 μl goat anti-human IgG(Fc)-Cy5 (Cat: 12136, Lot: 017M4800V, Sigma) diluted with 5% BSA added into each well for 1 h at room temperature, then centrifuged at 1500 rpm for 2 minutes, and supernatants were discarded. The cells were resuspended by adding 200 μl PBS and the suspensions obtained were then centrifuged at 1500 rpm for 2 minutes, then supernatants were discarded. The cells again were resuspended by adding 200 μl PBS thereto and detected by flow cytometry (B49007AD, SNAW31211).

[2] = molecular target: T2, recombinant human PD-1 protein (NCBI accession No.: NP_005009.2, 21aa-167aa) (human, UniProt Q15116 21-167); assay: ELISA, biotinylated h317 on plate-bound PD-1
T2 construct: range 21-167; also called recombinant human PD-1 extracellular domain protein; PD-1-ECD
T2 sequence (Q15116 21-167 limits assumed, form in doubt): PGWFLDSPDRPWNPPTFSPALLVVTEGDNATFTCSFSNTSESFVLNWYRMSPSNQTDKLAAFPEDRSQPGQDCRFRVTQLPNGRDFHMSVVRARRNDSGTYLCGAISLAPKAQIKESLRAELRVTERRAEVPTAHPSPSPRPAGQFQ
Experimental: (§2) The plates were washed three times with PBS subsequently, and 5% BSA-PBS was added for blocking for 60 min at 37° C. […] Again, the plates were washed four times with PBST, then HRP-streptavidin (Cat: 019-035-098, Jackson immuno Research) with a dilution of 1:100 was added for a 30 min incubation at 37° C. Once again, the plates were washed four times with PBST, and TMB substrate was added for developing color through incubating for 10 min at 37° C., then the reaction was terminated by adding 2 M HCl. With 630 nm as reference wavelength, the absorbance at a wavelength of 450 nm (A450 nm-630 nm) of each well in the plates was read and recorded.

[3] = molecular target: T3, cynomolgus monkey PD-1 (Cat: 90311-C08H, Sino Biological Inc.) (cynomolgus monkey, UniProt B0LAJ3 25-170); assay: ELISA, biotinylated h317 on plate-bound PD-1
T3 construct: Bought recombinant protein; not shown: The vendor's tag
T3 sequence (B0LAJ3 entry or part of it C08H C08H limits assumed): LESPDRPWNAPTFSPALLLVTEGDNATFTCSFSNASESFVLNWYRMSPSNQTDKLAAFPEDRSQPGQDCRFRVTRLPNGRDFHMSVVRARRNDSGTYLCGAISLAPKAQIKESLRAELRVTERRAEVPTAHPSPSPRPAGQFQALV
Experimental: as §2

[4] = molecular target: T2, recombinant human PD-1 protein (NCBI …); assay: BLI (Octet QKe), biotin-labelled antibody on streptavidin sensor, PD-1 100 nM-12.5 nM
Experimental: Determination of the binding kinetics: the affinity of the antibody was determined with Octet QKe system from Fortebio using an assay of capturing biotin-labeled antibody with streptavidin. […] Both the binding and dissociating were conducted for 300 s.

[5] = molecular target: T2, recombinant human PD-1 protein (NCBI …); assay: ELISA, plate coated with the protein at 1 µg/mL, biotinylated h317, HRP-streptavidin
Experimental: as §2, with “Immuno” for “immuno”

[6] = molecular target: CD28 (Cat: 11524-HCCH, Sino Biological Inc.) (human, UniProt P10747 19-152); assay: as above
Experimental: as §2, with “Immuno” for “immuno”

[7] = molecular target: CTLA4 (Cat: 11159-H08H, Sino Biological Inc.) (human, UniProt P16410 36-162); assay: as above
CTLA4 (Cat: 11159-H08H, Sino Biological Inc.), sequence (P16410 36-162 limits assumed): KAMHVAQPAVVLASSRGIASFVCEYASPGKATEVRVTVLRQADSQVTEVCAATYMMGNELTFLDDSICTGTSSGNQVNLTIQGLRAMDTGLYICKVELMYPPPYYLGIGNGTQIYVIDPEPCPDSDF
Experimental: as §2, with “Immuno” for “immuno”

[8] = molecular target: T4, rat PD-1 (Cat: 80448-R08H, Sino Biological Inc.) (rat, UniProt D3ZIN8 25-169); assay: ELISA, plate coated with the PD-1 protein at 1 µg/mL, biotinylated h317, HRP-streptavidin
T4 construct: Bought recombinant protein; also called recombinant rat PD-1; not shown: The vendor's tag
T4 sequence: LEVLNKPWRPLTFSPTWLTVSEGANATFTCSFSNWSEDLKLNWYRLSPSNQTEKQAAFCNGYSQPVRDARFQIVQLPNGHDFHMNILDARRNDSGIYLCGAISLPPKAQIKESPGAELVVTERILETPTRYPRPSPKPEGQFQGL
Experimental: as §2

N49A = molecular target: T5, N49A; assay: flow cytometry on transfected HEK293 cells, antibody 2 µg/ml, goat anti-human IgG(Fc)-Cy5; no negative-control bar is drawn
T5 construct: also called full-length human PD-1 N49A expressed on HEK293 cells; PD-1-mut N49A; not shown: EGFP of the expression vector, if it is fused to PD-1
T5 sequence (chain, as listed by the source N49A N49A limits assumed): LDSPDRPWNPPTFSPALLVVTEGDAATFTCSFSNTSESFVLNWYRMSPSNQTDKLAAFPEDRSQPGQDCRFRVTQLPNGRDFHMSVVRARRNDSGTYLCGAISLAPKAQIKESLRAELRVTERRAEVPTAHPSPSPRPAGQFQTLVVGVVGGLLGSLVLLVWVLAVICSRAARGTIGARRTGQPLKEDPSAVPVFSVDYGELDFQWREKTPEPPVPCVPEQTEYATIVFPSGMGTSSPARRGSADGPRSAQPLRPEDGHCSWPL
Experimental: as §1

N74A = molecular target: T6, N74A; assay: as above
T6 construct: also called full-length human PD-1 N74A expressed on HEK293 cells; PD-1-mut N74A; not shown: EGFP of the expression vector, if it is fused to PD-1
T6 sequence (chain, as listed by the source N74A N74A limits assumed): as the sequence (chain, as listed by the source N49A N49A limits assumed) above, with A25N, N50A counted along it
Experimental: as §1

N116A = molecular target: T7, N116A; assay: as above
T7 construct: also called full-length human PD-1 N116A expressed on HEK293 cells; PD-1-mut N116A; not shown: EGFP of the expression vector, if it is fused to PD-1
T7 sequence (chain, as listed by the source N116A N116A limits assumed): as the sequence (chain, as listed by the source N49A N49A limits assumed) above, with A25N, N92A counted along it
Experimental: as §1

T1 sequence (Q15116 25-288 N58A): as the sequence (chain, as listed by the source N49A N49A limits assumed) above, with A25N, N34A counted along it

- binding result [1]: no binding (tested: 2 µg/ml)
- EC50 [2]: 0.0047 nM
- EC50 [3]: 0.0182 nM
- Kd [4]: 6.16 nM
- koff [4]: 0.00095 s⁻¹
- kon [4]: 154000 M⁻¹ s⁻¹
- EC50 (read off the curve) [5]: ~0.001 nM
- binding result (N49A): binds
- binding result (N74A): binds
- binding result (N116A): binds
B1: h317 (humanized anti-human PD-1 antibody) (antibody, V domains shown)
VH: EVQLVESGGGLVKPGGSLRLSCAASGFTFSSYDMSWVRQAPGKGLEWVATISGGGSYTYYPDSVKGRFTISRDNAKNSLYLQMNSLRAEDTAVYYCASPDSSGVAYWGQGTLVTVSS
VL: DIVMTQSPLSLPVTPGEPASITCKASQDVETVVAWYLQKPGQSPRLLIYWASTRHTGVPDRFSGSGSGTDFTLKISRVEAEDVGVYYCQQYSRYPWTFGQGTKL
notes: also called h317-biotin; biotinylated h317
- binding result [6]: no binding (tested: 1 nM (log(nM) 0 on the axis))
- binding result [7]: no binding (tested: 1 nM (log(nM) 0 on the axis))
- binding result [8]: no binding (tested: 1 nM (log(nM) 0 on the axis))

— patent publication US20230104769A1 (MABWELL SHANGHAI BIOSCIENCE, published 2023)
